Here are results for six substances from US20190077849A1.

Where two headings read alike, the source gives them in different places. A value given as a limit tells only on which side of the number the result lay.

Common to all, as to assay: cell-based or functional assay
Assay [1] deals with HIV-1 Env of 6095.V1.C10.SG3 pseudovirus (clade ACD) (HIV-1).
The target in assay [2] is HIV-1 Env of 6101.10.SG3 pseudovirus (clade B) (HIV-1).
In assay [3] the target is HIV-1 Env of CNE31.SG3 pseudovirus (clade C) (HIV-1).
The target in assay [4] is HIV-1 Env of KER2008.12.SG3 pseudovirus (clade A) (HIV-1).
Assay [5] deals with HIV-1 Env of PVO.04.SG3 pseudovirus (clade B) (HIV-1).
The target of assay [6] is HIV-1 Env of TH966.8.SG3 pseudovirus (clade AE) (HIV-1).
For assay [7], the target named is HIV-1 Env of YU2.DG.SG3 pseudovirus (clade B) (HIV-1) (UniProt P35961).
For assay [8], the target named is HIV-1 Env of ZM106.9.SG3 pseudovirus (clade C) (HIV-1).
The target in assay [9] is HIV-1 Env of ZM215.8.SG3 pseudovirus (clade C) (HIV-1).
Assay [10] has as its target HIV-1 Env of 6095.V1.C10.SG3 pseudovirus (clade ACD) (HIV-1). The source holds these as a separate data set.
The target in assay [11] is HIV-1 Env of 6101.10.SG3 pseudovirus (clade B) (HIV-1). This is another data set of the same source.
In assay [12] the target is HIV-1 Env of CNE31.SG3 pseudovirus (clade C) (HIV-1). The source holds these as a separate data set.
In assay [13] the target is HIV-1 Env of KER2008.12.SG3 pseudovirus (clade A) (HIV-1). The source holds these as a separate data set.
Assay [14] addresses HIV-1 Env of PVO.04.SG3 pseudovirus (clade B) (HIV-1). The source holds these as a separate data set.
The target of assay [15] is HIV-1 Env of TH966.8.SG3 pseudovirus (clade AE) (HIV-1). The source holds these as a separate data set.
In assay [16] the target is HIV-1 Env of YU2.DG.SG3 pseudovirus (clade B) (HIV-1) (UniProt P35961). This is another data set of the same source.
Assay [17] addresses HIV-1 Env of ZM106.9.SG3 pseudovirus (clade C) (HIV-1). The source holds these as a separate data set.
Assay [18] has as its target HIV-1 Env of ZM215.8.SG3 pseudovirus (clade C) (HIV-1). This is another data set of the same source.

Sequence of 10E8v4 S100cH (antibody) (VH): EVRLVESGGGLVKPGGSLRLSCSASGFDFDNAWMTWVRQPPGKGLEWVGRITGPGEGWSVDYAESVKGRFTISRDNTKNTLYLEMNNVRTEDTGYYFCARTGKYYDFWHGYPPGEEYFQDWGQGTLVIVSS
Sequence of 10E8v4 S100cH (antibody) (VL): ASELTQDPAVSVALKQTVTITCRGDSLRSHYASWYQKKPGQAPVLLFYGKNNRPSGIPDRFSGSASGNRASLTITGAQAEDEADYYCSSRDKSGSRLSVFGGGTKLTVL
Sequence of 10E8v4 S100cR (antibody) (VH): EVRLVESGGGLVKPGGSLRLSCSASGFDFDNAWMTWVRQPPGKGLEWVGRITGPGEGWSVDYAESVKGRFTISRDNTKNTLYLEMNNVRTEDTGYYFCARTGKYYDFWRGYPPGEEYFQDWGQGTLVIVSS
Sequence of 10E8v4 S100cR (antibody) (VL): as the sequence (VL) above
Sequence of 10E8v4 S100cF (antibody) (VH): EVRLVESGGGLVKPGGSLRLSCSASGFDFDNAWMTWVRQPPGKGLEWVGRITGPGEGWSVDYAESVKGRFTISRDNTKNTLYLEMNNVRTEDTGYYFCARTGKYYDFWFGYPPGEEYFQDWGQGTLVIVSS
Sequence of 10E8v4 S100cF (antibody) (VL): as the sequence (VL) above
Sequence of 10E8v4 S100cW (antibody) (VH): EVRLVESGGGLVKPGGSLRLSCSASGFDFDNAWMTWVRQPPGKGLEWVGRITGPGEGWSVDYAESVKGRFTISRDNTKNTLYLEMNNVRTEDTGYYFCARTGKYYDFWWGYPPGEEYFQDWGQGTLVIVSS
Sequence of 10E8v4 S100cW (antibody) (VL): as the sequence (VL) above
Sequence of 10E8v4 S100cL (antibody) (VH): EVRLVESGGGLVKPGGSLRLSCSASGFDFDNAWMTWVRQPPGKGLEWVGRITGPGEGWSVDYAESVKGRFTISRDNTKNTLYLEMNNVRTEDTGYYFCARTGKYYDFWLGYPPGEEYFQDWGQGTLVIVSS
Sequence of 10E8v4 S100cL (antibody) (VL): as the sequence (VL) above
Sequence of 10E8v4 S100cY (antibody) (VH): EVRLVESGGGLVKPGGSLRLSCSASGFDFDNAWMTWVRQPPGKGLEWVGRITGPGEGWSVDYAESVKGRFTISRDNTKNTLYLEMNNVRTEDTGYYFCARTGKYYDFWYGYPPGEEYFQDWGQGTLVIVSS
Sequence of 10E8v4 S100cY (antibody) (VL): as the sequence (VL) above

On to 10E8v4 S100cR (antibody), for which the IC50, pseudovirus neutralization in [1] is 0.011 µg/mL; in assay [2], 0.176 µg/mL; in assay [3], 2.54 µg/mL; in assay [4], above 50 µg/mL; in assay [5] it was 6.45 µg/mL; in assay [6] it was 0.168 µg/mL. The IC50, pseudovirus neutralization in assay [7] was 3.87 µg/mL; in assay [8], above 50 µg/mL; in assay [9], 0.363 µg/mL. The IC80, pseudovirus neutralization in assay [1] was 0.048 µg/mL; in [2], 0.891 µg/mL; in assay [3], 8.42 µg/mL; in [4], above 50 µg/mL; in assay [5], 25 µg/mL; in assay [6] it was 0.648 µg/mL. Further, the figures for the IC80, pseudovirus neutralization in [7], in assay [8] and in assay [9] were 12 µg/mL, above 50 µg/mL and 1.34 µg/mL, respectively.

Regarding 10E8v4 S100cY (antibody), the IC50, pseudovirus neutralization in [1] was 0.001 µg/mL; in assay [2] it was 0.009 µg/mL; in assay [3] it was 0.368 µg/mL; in assay [4] it was above 50 µg/mL; in assay [5], 0.412 µg/mL; in assay [6] it was 0.011 µg/mL. The IC50, pseudovirus neutralization in assay [7] is 0.376 µg/mL; in assay [8], above 50 µg/mL; in assay [9], 0.028 µg/mL. Also, the IC80, pseudovirus neutralization is 0.006 µg/mL in assay [1]; 0.063 µg/mL in [2]; 1.39 µg/mL in assay [3]; above 50 µg/mL in [4]; 3.44 µg/mL in assay [5]; 0.075 µg/mL in assay [6]. Besides, the results for the IC80, pseudovirus neutralization in assay [7], in [8] and in assay [9] were 2.25 µg/mL, above 50 µg/mL and 0.129 µg/mL, respectively.

10E8v4 S100cF (antibody): the IC50, pseudovirus neutralization in [1] is 0.001 µg/mL; in assay [2] it was 0.001 µg/mL; in assay [3], 0.097 µg/mL; in [4] it was above 50 µg/mL; in [5], 0.147 µg/mL; in assay [6], 0.002 µg/mL. For the same substance, the IC50, pseudovirus neutralization in [7] was 0.073 µg/mL; in assay [8], above 50 µg/mL; in assay [9], 0.003 µg/mL. In addition, the IC80, pseudovirus neutralization is 0.001 µg/mL in assay [1]; 0.008 µg/mL in [2]; 0.306 µg/mL in assay [3]; above 50 µg/mL in [4]; 0.696 µg/mL in assay [5]; 0.017 µg/mL in assay [6]. The IC80, pseudovirus neutralization was 0.482 µg/mL in assay [7], above 50 µg/mL in [8] and 0.02 µg/mL in [9].

10E8v4 S100cH (antibody): the IC50, pseudovirus neutralization in assay [1] was 0.011 µg/mL; in [2] it was 0.103 µg/mL; in assay [3] it was 2.24 µg/mL; in [4], above 50 µg/mL; in assay [5], 3.4 µg/mL; in assay [6], 0.091 µg/mL. The IC50, pseudovirus neutralization in assay [7] is 2.59 µg/mL; in assay [8] it was above 50 µg/mL; in assay [9], 0.141 µg/mL. Besides, the IC80, pseudovirus neutralization in assay [1] is 0.046 µg/mL; in [2], 0.643 µg/mL; in assay [3], 6.79 µg/mL; in assay [4], above 50 µg/mL; in [5] it was 14 µg/mL; in assay [6] it was 0.488 µg/mL. Further, the IC80, pseudovirus neutralization is 10.9 µg/mL in assay [7], above 50 µg/mL in assay [8] and 0.966 µg/mL in [9].

Consider 10E8v4 S100cW (antibody), for which the IC80, pseudovirus neutralization in [10] is 0.001 µg/mL; in [11] it was 0.01 µg/mL; in assay [12] it was 0.295 µg/mL; in assay [13] it was above 50 µg/mL; in [14], 0.459 µg/mL; in assay [15], 0.013 µg/mL. Moreover, the IC80, pseudovirus neutralization in [16] was 0.26 µg/mL; in assay [17], above 50 µg/mL; in assay [18], 0.025 µg/mL; in assay [2], 0.006 µg/mL; in [3], 0.149 µg/mL; in [5], 0.388 µg/mL. Further, the values for the IC80, pseudovirus neutralization in assay [6], in [7] and in [9] were 0.007 µg/mL, 0.331 µg/mL and 0.012 µg/mL, respectively. Also, the IC50, pseudovirus neutralization in assay [11] is 0.002 µg/mL; in assay [12], 0.107 µg/mL; in assay [13], above 50 µg/mL; in assay [14], 0.085 µg/mL; in [15] it was 0.003 µg/mL; in assay [16] it was 0.031 µg/mL. For the same substance, the IC50, pseudovirus neutralization is above 50 µg/mL in assay [17]; 0.004 µg/mL in [18]; 0.001 µg/mL in [1]; 0.001 µg/mL in assay [2]; 0.041 µg/mL in assay [3]; 0.088 µg/mL in assay [5]. Moreover, the figures for the IC50, pseudovirus neutralization in [6], in assay [7] and in [9] were 0.001 µg/mL, 0.042 µg/mL and 0.001 µg/mL, respectively.

For the substance 10E8v4 S100cL (antibody), the IC50, pseudovirus neutralization in assay [1] is 0.001 µg/mL; in assay [2], 0.007 µg/mL; in assay [3], 0.354 µg/mL; in [4], above 50 µg/mL; in assay [5], 0.507 µg/mL; in assay [6], 0.011 µg/mL. Besides, the IC50, pseudovirus neutralization in [7] is 0.333 µg/mL; in assay [8] it was above 50 µg/mL; in assay [9], 0.015 µg/mL. Moreover, the IC80, pseudovirus neutralization in assay [1] was 0.002 µg/mL; in assay [2] it was 0.049 µg/mL; in assay [3], 1.01 µg/mL; in [4], above 50 µg/mL; in assay [5], 2.21 µg/mL; in assay [6] it was 0.079 µg/mL. For the same substance, the figures for the IC80, pseudovirus neutralization in assay [7], in [8] and in [9] were 1.75 µg/mL, above 50 µg/mL and 0.095 µg/mL, respectively.
